Assay results: US7329728

Legend:
Assay in all cases: cell-based or functional assay
[1] = biological target: Cf2-PBD-VP64 (human) (UniProt P06401)
[2] = biological target: ER-VP64 (mouse) (UniProt P19785)
[3] = biological target: ER-KRAB (mouse; human) (UniProt P19785)
Sequence of ER-KRAB (mouse; human) (P19785 other isoform, or with tags, fused parts or gaps): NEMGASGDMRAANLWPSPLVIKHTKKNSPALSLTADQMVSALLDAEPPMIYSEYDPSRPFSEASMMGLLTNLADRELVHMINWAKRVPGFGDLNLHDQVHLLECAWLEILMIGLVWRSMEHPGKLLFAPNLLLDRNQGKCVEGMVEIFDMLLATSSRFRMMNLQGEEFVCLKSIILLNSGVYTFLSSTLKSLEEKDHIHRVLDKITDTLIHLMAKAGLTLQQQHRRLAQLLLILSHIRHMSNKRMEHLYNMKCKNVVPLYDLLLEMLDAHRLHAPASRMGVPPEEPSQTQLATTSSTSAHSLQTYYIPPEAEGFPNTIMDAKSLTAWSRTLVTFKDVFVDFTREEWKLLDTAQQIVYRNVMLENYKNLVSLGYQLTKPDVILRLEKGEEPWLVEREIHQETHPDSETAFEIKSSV

Sequence of ER-VP64 (mouse) (P19785 282-599 G525R): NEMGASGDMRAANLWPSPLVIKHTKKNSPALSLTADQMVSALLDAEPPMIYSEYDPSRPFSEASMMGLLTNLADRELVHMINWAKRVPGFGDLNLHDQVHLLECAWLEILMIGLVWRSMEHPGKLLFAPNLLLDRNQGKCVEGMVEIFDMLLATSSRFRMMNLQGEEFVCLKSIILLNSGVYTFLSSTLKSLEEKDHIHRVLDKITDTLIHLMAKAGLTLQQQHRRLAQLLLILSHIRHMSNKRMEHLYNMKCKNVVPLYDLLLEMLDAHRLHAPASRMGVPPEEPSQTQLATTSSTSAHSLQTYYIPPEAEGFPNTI
Sequence of Cf2-PBD-VP64 (human) (P06401 640-914): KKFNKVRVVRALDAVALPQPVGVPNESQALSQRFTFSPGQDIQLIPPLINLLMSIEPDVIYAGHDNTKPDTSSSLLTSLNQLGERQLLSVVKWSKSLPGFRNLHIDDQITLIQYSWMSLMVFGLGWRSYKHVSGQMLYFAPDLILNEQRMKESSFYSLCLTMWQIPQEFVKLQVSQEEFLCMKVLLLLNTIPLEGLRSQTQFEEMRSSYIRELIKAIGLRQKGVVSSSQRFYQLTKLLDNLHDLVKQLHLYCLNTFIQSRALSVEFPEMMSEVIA
Sequence of C7-PBD-VP64 (P06401 640-914): as above

Substance	ligand-dependent change in transcription of a C7-Cf2 TATA luciferase reporter [1]	erbB-2 promoter luciferase activity in HeLa cells, on addition of Tamoxifen [2]	tamoxifen-dependent repression of the erbB-2 promoter (luciferase) [3]
C7-PBD-VP64 (from UniProt P06401 640-914)	2 fold		
E2C-ER (from UniProt P19785 282-599)		3 fold	2.9 fold
